{
  "source": "patent US20020182180A1",
  "key": {"[1]": {"target": "CD4 receptor on CD4+ cells (SupT-1 cells; IL-2-dependent CD4+ T lymphocytes) (UniProt P01730)", "test": "cell-based or functional assay"}, "[2]": {"target": "V3 loop-deleted (Δ297-329) HIV-1IIIB env glycoprotein expressed by vv-7ΔV3 (HIV-1 IIIB isolate) (UniProt P04578)", "test": "cell-based or functional assay"}},
  "data": [
    {"substance": "full-length (wild-type) HIV-1IIIB env glycoprotein expressed by vv-WTP-2 (from UniProt P04578 33-856)", "values": [
      {"measurement": "apoptotic cells (sub-G1 DNA content, PI staining) in infected SupT-1 cells, 16 hr", "setting": "[1]", "value": 20, "unit": "%"},
      {"measurement": "syncytium formation in infected SupT-1 cells", "setting": "[1]", "value": "80 to 90", "unit": "%"}
    ]},
    {"substance": "V3 loop-deleted (Δ297-329) HIV-1IIIB env glycoprotein expressed by vv-7ΔV3 (from UniProt P04578 33-296; P04578 330-856)", "values": [
      {"measurement": "activation-induced apoptosis of CD4+ T lymphocytes (fragmented DNA, PI, 72 hrs)", "setting": "[1]", "value": "< 7", "unit": "%"}
    ]},
    {"substance": "F105, human mAb directed against a discontinuous gp120 epitope overlapping the CD4 binding site (antibody)", "values": [
      {"measurement": "ADCC specific lysis (51Cr release, E:T 50:1)", "setting": "[2]", "value": "< 4", "unit": "%"}
    ]}
  ]
}
